In patent CN116082503A:

Target: T细胞表面未知蛋白 (unknown protein on the surface of CD3+ T cells)
Experiment: cell-based or functional assay

IGSF9-ECD-His (带有His标签的人IGSF9胞外区蛋白) (receptor)
T细胞增殖抑制, 剂量依赖 (dose at which inhibition of T cell proliferation becomes evident): > 0.5 µg
